Measurements: the supplement of paper PMC9112550, “Optimization of the antimicrobial peptide Bac7 by deep mutational scanning” (BMC Biology, 2022)

System: Escherichia coli TOP10
Experiment: shrunken log2 fold change of peptide-encoding DNA abundance (4.5 h post-induction vs induction); higher = less antimicrobial activity (less host growth inhibition)
Conditions: time post-induction: 4.5 h; library: site-saturation at positions 5, 18, 19, 20
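Note: peptides expressed intracellularly from a pBAD plasmid library in pooled LB shake-flask culture, induced with 0.3% L-arabinose, DNA abundance read by NGS, three biological replicates, DESeq2 with apeglm shrinkage.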

Sequence	shrunken log2 fold change
RRIRQRPPRLPRPRPRPMYHPRP	-0.477
RRIRQRPPRLPRPRPRPNCEPRP	0.117
RRIRQRPPRLPRPRPRPNENPRP	-0.0578
RRIRQRPPRLPRPRPRPNFCPRP	0.117
RRIRQRPPRLPRPRPRPNFSPRP	-0.23
RRIRQRPPRLPRPRPRPNGGPRP	0.00705
RRIRQRPPRLPRPRPRPNHCPRP	-0.0615
RRIRQRPPRLPRPRPRPNHPPRP	-0.249
RRIRQRPPRLPRPRPRPNIYPRP	-0.153
RRIRQRPPRLPRPRPRPNKIPRP	-0.388
RRIRQRPPRLPRPRPRPNMSPRP	-0.313
RRIRQRPPRLPRPRPRPNMTPRP	-0.196
RRIRQRPPRLPRPRPRPNMWPRP	-0.419
RRIRQRPPRLPRPRPRPNNQPRP	-0.477
RRIRQRPPRLPRPRPRPNPSPRP	-0.042
RRIRQRPPRLPRPRPRPNQRPRP	0.0738
RRIRQRPPRLPRPRPRPNSQPRP	0.229
RRIRQRPPRLPRPRPRPNSTPRP	-0.642
RRIRQRPPRLPRPRPRPNVHPRP	-0.258
RRIRQRPPRLPRPRPRPNWCPRP	-0.0237
RRIRQRPPRLPRPRPRPNWIPRP	-0.0614
RRIRQRPPRLPRPRPRPNWNPRP	-0.206
RRIRQRPPRLPRPRPRPNWVPRP	0.00521
RRIRQRPPRLPRPRPRPNYAPRP	-0.0208
RRIRQRPPRLPRPRPRPNYVPRP	-0.426

Sequence	shrunken log2 fold change
RRIRQRPPRLPRPRPRPPAEPRP	0.589
RRIRQRPPRLPRPRPRPPAKPRP	0.358
RRIRQRPPRLPRPRPRPPCFPRP	0.222
RRIRQRPPRLPRPRPRPPCGPRP	0.184
RRIRQRPPRLPRPRPRPPEEPRP	-0.00674
RRIRQRPPRLPRPRPRPPEIPRP	-0.0671
RRIRQRPPRLPRPRPRPPFCPRP	-0.284
RRIRQRPPRLPRPRPRPPFPPRP	0.243
RRIRQRPPRLPRPRPRPPGLPRP	0.127
RRIRQRPPRLPRPRPRPPIMPRP	-0.344
RRIRQRPPRLPRPRPRPPIRPRP	-0.0146
RRIRQRPPRLPRPRPRPPKCPRP	-0.37
RRIRQRPPRLPRPRPRPPKNPRP	0.29
RRIRQRPPRLPRPRPRPPLNPRP	0.633
RRIRQRPPRLPRPRPRPPPAPRP	0.804
RRIRQRPPRLPRPRPRPPQEPRP	-0.00749
RRIRQRPPRLPRPRPRPPQKPRP	-0.167
RRIRQRPPRLPRPRPRPPQYPRP	0.198
RRIRQRPPRLPRPRPRPPRHPRP	0.644
RRIRQRPPRLPRPRPRPPSFPRP	0.0399
RRIRQRPPRLPRPRPRPPSIPRP	-0.0422
RRIRQRPPRLPRPRPRPPSLPRP	0.149
RRIRQRPPRLPRPRPRPPSNPRP	-0.481
RRIRQRPPRLPRPRPRPPSWPRP	0.581
RRIRQRPPRLPRPRPRPPTPPRP	0.538

Sequence	shrunken log2 fold change
RRIRQRPPRLPRPRPRPPVPPRP	0.197
RRIRQRPPRLPRPRPRPPVTPRP	0.199
RRIRQRPPRLPRPRPRPPWDPRP	0.224
RRIRQRPPRLPRPRPRPPWEPRP	-0.0075
RRIRQRPPRLPRPRPRPPYAPRP	-0.189
RRIRQRPPRLPRPRPRPPYMPRP	-0.184
RRIRQRPPRLPRPRPRPQAVPRP	0.00748
RRIRQRPPRLPRPRPRPQCAPRP	-0.183
RRIRQRPPRLPRPRPRPQFDPRP	-0.178
RRIRQRPPRLPRPRPRPQFLPRP	-0.359
RRIRQRPPRLPRPRPRPQFQPRP	-0.265
RRIRQRPPRLPRPRPRPQHEPRP	0.119
RRIRQRPPRLPRPRPRPQIPPRP	-0.214
RRIRQRPPRLPRPRPRPQISPRP	-0.159
RRIRQRPPRLPRPRPRPQIVPRP	-0.026
RRIRQRPPRLPRPRPRPQNAPRP	-0.198
RRIRQRPPRLPRPRPRPQNDPRP	0.119
RRIRQRPPRLPRPRPRPQPFPRP	-0.0492
RRIRQRPPRLPRPRPRPQPSPRP	0.44
RRIRQRPPRLPRPRPRPQRAPRP	0.224
RRIRQRPPRLPRPRPRPQSNPRP	-0.00933
RRIRQRPPRLPRPRPRPQTFPRP	0.028
RRIRQRPPRLPRPRPRPQVCPRP	0.0103
RRIRQRPPRLPRPRPRPQWFPRP	0.0435
RRIRQRPPRLPRPRPRPRAEPRP	0.292

Sequence	shrunken log2 fold change
RRIRQRPPRLPRPRPRPRCCPRP	0.061
RRIRQRPPRLPRPRPRPRCKPRP	0.268
RRIRQRPPRLPRPRPRPRCMPRP	-0.164
RRIRQRPPRLPRPRPRPRCYPRP	0.0331
RRIRQRPPRLPRPRPRPRDNPRP	-0.0667
RRIRQRPPRLPRPRPRPREFPRP	0.0416
RRIRQRPPRLPRPRPRPREHPRP	-0.117
RRIRQRPPRLPRPRPRPREKPRP	0.158
RRIRQRPPRLPRPRPRPRELPRP	0.0285
RRIRQRPPRLPRPRPRPRFPPRP	0.0593
RRIRQRPPRLPRPRPRPRGEPRP	0.348
RRIRQRPPRLPRPRPRPRGLPRP	0.00877
RRIRQRPPRLPRPRPRPRGNPRP	0.106
RRIRQRPPRLPRPRPRPRHCPRP	-0.0425
RRIRQRPPRLPRPRPRPRHEPRP	-0.131
RRIRQRPPRLPRPRPRPRIDPRP	0.0868
RRIRQRPPRLPRPRPRPRIEPRP	0.111
RRIRQRPPRLPRPRPRPRIGPRP	0.341
RRIRQRPPRLPRPRPRPRIKPRP	0.127
RRIRQRPPRLPRPRPRPRLKPRP	0.161
RRIRQRPPRLPRPRPRPRLPPRP	0.467
RRIRQRPPRLPRPRPRPRLWPRP	0.504
RRIRQRPPRLPRPRPRPRMSPRP	0.208
RRIRQRPPRLPRPRPRPRMTPRP	0.388
RRIRQRPPRLPRPRPRPRNCPRP	5

Sequence	shrunken log2 fold change
RRIRQRPPRLPRPRPRPRNDPRP	-0.485
RRIRQRPPRLPRPRPRPRNMPRP	-0.211
RRIRQRPPRLPRPRPRPRNYPRP	0.034
RRIRQRPPRLPRPRPRPRQAPRP	0.0647
RRIRQRPPRLPRPRPRPRSAPRP	0.319
RRIRQRPPRLPRPRPRPRSEPRP	0.234
RRIRQRPPRLPRPRPRPRSFPRP	-0.0281
RRIRQRPPRLPRPRPRPRSQPRP	0.0421
RRIRQRPPRLPRPRPRPRVSPRP	-0.0909
RRIRQRPPRLPRPRPRPRWTPRP	0.25
RRIRQRPPRLPRPRPRPRWVPRP	0.345
RRIRQRPPRLPRPRPRPRYCPRP	-0.143
RRIRQRPPRLPRPRPRPSAEPRP	0.117
RRIRQRPPRLPRPRPRPSEAPRP	0.17
RRIRQRPPRLPRPRPRPSETPRP	-0.216
RRIRQRPPRLPRPRPRPSFDPRP	0.182
RRIRQRPPRLPRPRPRPSFFPRP	-0.287
RRIRQRPPRLPRPRPRPSFMPRP	-0.509
RRIRQRPPRLPRPRPRPSGMPRP	-0.143
RRIRQRPPRLPRPRPRPSISPRP	-0.22
RRIRQRPPRLPRPRPRPSITPRP	-0.731
RRIRQRPPRLPRPRPRPSKLPRP	-0.401
RRIRQRPPRLPRPRPRPSLQPRP	-0.154
RRIRQRPPRLPRPRPRPSMAPRP	-0.135
RRIRQRPPRLPRPRPRPSNKPRP	-0.513

Sequence	shrunken log2 fold change
RRIRQRPPRLPRPRPRPSNMPRP	-0.459
RRIRQRPPRLPRPRPRPSNVPRP	-0.0428
RRIRQRPPRLPRPRPRPSQAPRP	0.103
RRIRQRPPRLPRPRPRPSQFPRP	0.00374
RRIRQRPPRLPRPRPRPSVEPRP	0.218
RRIRQRPPRLPRPRPRPSWSPRP	-0.185
RRIRQRPPRLPRPRPRPTFHPRP	0.199
RRIRQRPPRLPRPRPRPTFMPRP	-0.552
RRIRQRPPRLPRPRPRPTGFPRP	0.051
RRIRQRPPRLPRPRPRPTGMPRP	0.475
RRIRQRPPRLPRPRPRPTIHPRP	-0.32
RRIRQRPPRLPRPRPRPTIWPRP	-0.0969
RRIRQRPPRLPRPRPRPTKMPRP	-0.239
RRIRQRPPRLPRPRPRPTLCPRP	0.00185
RRIRQRPPRLPRPRPRPTLIPRP	-0.131
RRIRQRPPRLPRPRPRPTLKPRP	-0.0628
RRIRQRPPRLPRPRPRPTLQPRP	0.276
RRIRQRPPRLPRPRPRPTMAPRP	0.216
RRIRQRPPRLPRPRPRPTNEPRP	-0.395
RRIRQRPPRLPRPRPRPTNFPRP	-0.159
RRIRQRPPRLPRPRPRPTNQPRP	0.0625
RRIRQRPPRLPRPRPRPTNWPRP	0.146
RRIRQRPPRLPRPRPRPTPCPRP	-0.138
RRIRQRPPRLPRPRPRPTPKPRP	1.53
RRIRQRPPRLPRPRPRPTQNPRP	0.627
